The values that follow are results of earlier work, collected in paper PMC2164963.

The data set addresses EBNA-1 (Epstein-Barr virus) (UniProt P03211).

In general, Kd refers to a measure of binding affinity in units of concentration. Turning to EBNA-1 (from UniProt P03211), the Kd was 1 nM.
